Experiments:
[1] = target: T1, native mouse MET on living cells (mouse, UniProt P16056 25-1379); test: cell-based or functional assay
[2] = target: T2, native human MET on living cells (human, UniProt P08581 25-1390); test: cell-based or functional assay
[3] = target: T1, native mouse MET on living cells; test: flow cytometry, MLP29 cells
Procedure: (§1) We also analysed whether chimeric anti-MET antibodies bound to native human and mouse MET in living cells. […] Antibody binding to cells was analysed by flow cytometry using phycoerythrin-conjugated anti-human IgG1 antibodies (eBioscience) and a CyAn ADP analyser (Beckman Coulter). As a positive control for human MET binding, we used a commercial mouse anti-human MET antibody (R&D Systems) and phycoerythrin-conjugated anti-mouse IgG1 antibodies (eBioscience).
(§2) As a positive control for mouse MET binding we used a commercial goat anti-mouse MET antibody (R&D Systems) and phycoerythrin-conjugated anti-goat IgG1 antibodies (eBioscience). […] Consistent with the data obtained in ELISA, maximal binding (EMAX) varied depending on antibody, but was similar in human and mouse cells.

mouse MET ECD [4] = target: T3, mouse MET ECD (mouse, UniProt P16056 25-931); test: ELISA, MET ECD in solid phase, mAb 0-20 nM
T3 construct: range 1-931; recombinant ECD made by the applicants; the stated range begins at residue 1; also called mMET; mMET ECD
Procedure: (§3) Production (by transient transfection of mammalian cells) and purification (by protein A affinity chromatography) of the resulting chimeric llama-human IgG1 molecules was outsourced to U-protein Express. Binding of chimeric mAbs to MET was determined by ELISA using hMET or mMET ECD in solid phase and increasing concentrations of antibodies (0-20 nM) in solution. […] Binding capacity (EMAX) varied from antibody to antibody, possibly due to partial epitope exposure in the immobilized antigen, but was similar in the human and mouse setting.

human MET ECD [5] = target: T4, human MET ECD (human, UniProt P08581 25-932); test: ELISA, MET ECD in solid phase, mAb 0-20 nM
T4 construct: range 1-932; recombinant ECD made by the applicants; the stated range begins at residue 1, so it includes the signal peptide of the entry; also called hMET; hMET ECD
Procedure: as §3

[6] = target: T2, native human MET on living cells; test: flow cytometry, A549 cells
Procedure: as §1, §2

[7] = target: T5, mouse MET-Fc (R&D Systems) (mouse, UniProt P16056 25-929, limits assumed); test: competition ELISA, mMET-Fc in solid phase, competitor 0.3 nM biotinylated mHGF
T5 construct: bought chimeric protein; also called mMET; not shown: Fc part
Procedure: (§4) To investigate along this line, we tested the competition between mAbs and HGF by ELISA. Recombinant human and mouse HGF (R&D Systems) were biotinylated at the N-terminus using NHS-LC-biotin (Thermo Scientific). MET-Fc protein, either human or mouse (R&D Systems), was immobilized in solid phase and then exposed to 0.3 nM biotinylated HGF, either human or mouse, in the presence of increasing concentrations of antibodies (0-120 nM).
(§5) A MET-Fc chimeric protein (either human or mouse) was immobilized in solid phase and exposed to a fixed concentration of biotinylated HGF (either human or mouse), in the presence of increasing concentrations of antibodies. […] Antibody-HGF competition is expressed as IC₅₀ (the concentration that achieves 50% competition) and IMAX (the maximum % competition reached at saturation).

[8] = target: T1, native mouse MET on living cells; test: cell-based or functional assay; remark: listed apart in the source
[9] = target: T2, native human MET on living cells; test: cell-based or functional assay; remark: listed apart in the source
[10] = target: T1, native mouse MET on living cells; test: cell-based or functional assay; remark: listed apart in the source
[11] = target: T2, native human MET on living cells; test: cell-based or functional assay; remark: listed apart in the source
[12] = target: T6, human MET-Fc (R&D Systems) (human, UniProt P08581 25-932); test: competition ELISA, hMET-Fc in solid phase, competitor 0.3 nM biotinylated hHGF
T6 construct: extracellular domain; bought chimeric protein; also called hMET; not shown: Fc portion of human IgG1
Procedure: as §4, §5

[13] = target: T1, native mouse MET on living cells; test: cell-based or functional assay; remark: listed apart in the source
[14] = target: T2, native human MET on living cells; test: cell-based or functional assay; remark: listed apart in the source
mouse MET ECD [15] = target: T3, mouse MET ECD; test: ELISA, MET ECD in solid phase, crude periplasmic Fab
Procedure: (§6) Fab-expressing phages from the libraries described above were produced according to standard phage display protocols. For selection, phages were first adsorbed to immobilized recombinant human MET ECD, washed, and then eluted using trypsin. After two cycles of selection with human MET ECD, two other cycles were performed in the same fashion using mouse MET ECD. In parallel, we also selected phages alternating a human MET ECD cycle with a mouse MET ECD cycle, for a total of four cycles. Phages selected by the two approaches were pooled together and then used to infect TG1 E. coli. Individual colonies were isolated and secretion of Fabs was induced using IPTG (Fermentas). The Fab-containing periplasmic fraction of bacteria was collected and tested for its ability to bind human and mouse MET ECD by Surface Plasmon Resonance (SPR). Human or mouse MET ECD was immobilized on a CM-5 chip using amine coupling in sodium acetate buffer (GE Healthcare). The Fab-containing periplasmic extracts were loaded into a BIACORE 3000 apparatus (GE Healthcare) with a flow rate of 30 μl/min. The Fab off-rates (koff) were measured over a two minute period. Binding of Fabs to human and mouse MET was further characterized by ELISA using MET ECD in solid phase and periplasmic crude extract in solution.
(§7) TABLE 7 Fabs binding to both human MET (hMET) and mouse MET (mMET). Fabs are grouped in families based on their VH CDR3 sequence. Binding of Fabs to human and mouse MET ECD was determined by Surface Plasmon Resonance (SPR) and by ELISA. SPR values represent the koff (s⁻¹). ELISA values represent the Optical Density (OD) at 450 nm (AU, arbitrary units). Both SPR and ELISA were performed using crude periplasmic extracts. Fab concentration in the extract was not determined. Values are the mean of three independent measurements.

human MET ECD [16] = target: T4, human MET ECD; test: as above
Procedure: as §6, §7

mouse MET ECD [17] = target: T3, mouse MET ECD; test: SPR, MET ECD on chip, crude periplasmic Fab
Procedure: as §6, §7

human MET ECD [18] = target: T4, human MET ECD; test: SPR, MET ECD on chip, crude periplasmic Fab
Procedure: as §6, §7

T2 sequence (P08581 25-1390): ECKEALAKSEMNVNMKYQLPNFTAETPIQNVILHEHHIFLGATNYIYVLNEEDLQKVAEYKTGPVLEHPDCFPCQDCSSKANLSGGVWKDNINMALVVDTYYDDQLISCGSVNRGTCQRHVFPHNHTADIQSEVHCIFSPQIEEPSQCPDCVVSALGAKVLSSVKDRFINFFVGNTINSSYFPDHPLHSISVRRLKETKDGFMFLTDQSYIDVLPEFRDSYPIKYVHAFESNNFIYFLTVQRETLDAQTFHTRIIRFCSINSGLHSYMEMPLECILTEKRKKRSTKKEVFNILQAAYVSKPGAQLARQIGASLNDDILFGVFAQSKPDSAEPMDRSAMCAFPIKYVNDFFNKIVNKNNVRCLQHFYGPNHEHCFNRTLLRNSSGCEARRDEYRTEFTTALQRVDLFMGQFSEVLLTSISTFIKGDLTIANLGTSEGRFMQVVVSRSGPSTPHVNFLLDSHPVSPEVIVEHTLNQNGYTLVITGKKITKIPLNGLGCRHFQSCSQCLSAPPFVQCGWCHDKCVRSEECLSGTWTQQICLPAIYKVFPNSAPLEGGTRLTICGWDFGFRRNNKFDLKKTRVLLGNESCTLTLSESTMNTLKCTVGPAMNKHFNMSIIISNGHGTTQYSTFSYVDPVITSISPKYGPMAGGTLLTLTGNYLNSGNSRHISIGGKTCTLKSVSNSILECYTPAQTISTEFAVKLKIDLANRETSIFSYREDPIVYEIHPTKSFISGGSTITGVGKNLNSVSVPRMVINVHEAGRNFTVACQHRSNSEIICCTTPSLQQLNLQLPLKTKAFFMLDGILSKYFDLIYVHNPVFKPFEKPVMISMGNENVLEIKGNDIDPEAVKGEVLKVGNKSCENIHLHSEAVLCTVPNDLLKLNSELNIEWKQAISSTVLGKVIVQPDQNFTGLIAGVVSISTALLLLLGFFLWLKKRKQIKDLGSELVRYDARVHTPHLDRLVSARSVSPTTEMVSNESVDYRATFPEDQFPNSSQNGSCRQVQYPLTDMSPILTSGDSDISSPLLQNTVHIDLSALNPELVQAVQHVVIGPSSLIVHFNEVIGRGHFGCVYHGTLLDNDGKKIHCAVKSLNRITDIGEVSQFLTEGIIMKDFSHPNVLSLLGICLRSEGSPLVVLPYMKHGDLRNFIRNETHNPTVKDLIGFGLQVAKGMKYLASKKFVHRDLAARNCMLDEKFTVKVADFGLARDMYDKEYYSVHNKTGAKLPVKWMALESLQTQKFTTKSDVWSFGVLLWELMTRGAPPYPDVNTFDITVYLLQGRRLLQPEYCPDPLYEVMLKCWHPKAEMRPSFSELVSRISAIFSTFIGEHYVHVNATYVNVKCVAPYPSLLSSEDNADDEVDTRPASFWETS
T4 sequence (P08581 25-932 limits assumed, form in doubt): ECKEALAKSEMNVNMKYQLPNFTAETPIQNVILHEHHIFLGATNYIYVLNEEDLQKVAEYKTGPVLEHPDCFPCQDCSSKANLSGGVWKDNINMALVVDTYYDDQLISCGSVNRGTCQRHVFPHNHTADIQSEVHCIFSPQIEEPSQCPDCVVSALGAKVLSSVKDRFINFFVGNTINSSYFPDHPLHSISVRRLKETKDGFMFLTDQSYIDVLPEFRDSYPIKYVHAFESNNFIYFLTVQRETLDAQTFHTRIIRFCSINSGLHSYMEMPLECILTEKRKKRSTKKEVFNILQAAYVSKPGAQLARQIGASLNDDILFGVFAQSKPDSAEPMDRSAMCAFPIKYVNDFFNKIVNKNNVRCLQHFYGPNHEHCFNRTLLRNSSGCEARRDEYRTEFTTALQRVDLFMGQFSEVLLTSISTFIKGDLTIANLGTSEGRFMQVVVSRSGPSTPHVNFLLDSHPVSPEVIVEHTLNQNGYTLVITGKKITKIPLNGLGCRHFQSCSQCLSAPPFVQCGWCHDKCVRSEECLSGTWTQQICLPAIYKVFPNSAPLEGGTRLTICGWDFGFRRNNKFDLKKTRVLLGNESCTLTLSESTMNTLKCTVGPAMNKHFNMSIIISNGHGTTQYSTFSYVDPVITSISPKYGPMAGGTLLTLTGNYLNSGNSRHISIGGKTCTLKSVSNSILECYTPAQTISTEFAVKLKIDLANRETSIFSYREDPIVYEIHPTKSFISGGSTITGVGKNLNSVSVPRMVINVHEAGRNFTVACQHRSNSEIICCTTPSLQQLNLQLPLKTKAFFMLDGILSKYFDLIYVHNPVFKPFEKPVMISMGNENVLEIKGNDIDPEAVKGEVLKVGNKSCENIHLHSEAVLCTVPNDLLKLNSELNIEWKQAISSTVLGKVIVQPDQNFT
T6 sequence (P08581 25-932): as the sequence (P08581 25-932 limits assumed, form in doubt) above

B1: 72F8 chimeric llama-human IgG1 mAb (antibody, V domains shown)
VH: ELQLVESGGGLVQPGGSLRLSCAASGFTFSNYVMSWVRQAPGKGLEWVSDTNSGGSTSYADSVKGRFTISRDNAKNTLYLQMNSLKPEDTALYYCARSFFYGMNYWGKGTQVTVSS
VL: QSALTQPPSLSASPGSSVRLTCTLSSGNNIGSYDISWYQQKAGSPPRYLLNYYTDSRKHQDSGVPSRFSGSKDASANAGLLLISGLQPEDEADYYCSAYKSGSYRWVFGGGTHVTVL
notes: llama VH on human IgG1 CH1-CH2-CH3, llama VL on human lambda CL
In the case of B1, the “phospho-MET ELISA EC50, MLP29 cells” value [1] is reported as 0.79 nM, the “phospho-MET ELISA EMAX (% HGF activity), MLP29 cells” value [1] is reported as 66.8% and the “phospho-MET ELISA EC50, A549 cells” value [2] is reported as 1.51 nM. The “phospho-MET ELISA EMAX (% HGF activity), A549 cells” value [2] was 69.7%, the EC50 [3] was 0.359 nM and the EMAX [3] was 172 % relative to control. For the same binder, the EC50 (mouse MET ECD [4]) was 0.048 nM, the “EMAX (OD450)” value (mouse MET ECD [4]) was 2.9 AU and the EC50 (human MET ECD [5]) was 0.064 nM. The “EMAX (OD450)” value (human MET ECD [5]) was 2.78 AU, the EC50 [6] was 0.371 nM and the EMAX [6] was 156 % relative to control. For the same binder, the IC50 [7] was 0.52 nM, the IMAX [7] was 72.8% and the “branches per spheroid, MLP29 cells, 0.5 nM” value [8] was 12.7 branches. The “branches per spheroid, MLP29 cells, 2.5 nM” value [8] was 11.7 branches, the “branches per spheroid, MLP29 cells, 12.5 nM” value [8] was 18.7 branches and the “branches per spheroid, LOC cells, 0.5 nM” value [9] was 9 branches. The “branches per spheroid, LOC cells, 2.5 nM” value [9] was 12.3 branches, the “branches per spheroid, LOC cells, 12.5 nM” value [9] was 16 branches and the “protection from staurosporine, viability EC50, MLP29 cells” value [10] was > 32 nM. For the same binder, the “protection from staurosporine, viability EMAX, MLP29 cells” value [10] was 43.8%, the “protection from staurosporine, viability EC50, MCF10A cells” value [11] was > 32 nM and the “protection from staurosporine, viability EMAX, MCF10A cells” value [11] was 35.8%. For the same binder, the IC50 [12] was 0.45 nM, the IMAX [12] was 77.3% and the “scatter score 0-4, MLP29, 0.001 nM” value [13] was 0 score. For the same binder, the “scatter score 0-4, MLP29, 0.004 nM” value [13] was 0 score, the “scatter score 0-4, MLP29, 0.012 nM” value [13] was 0 score and the “scatter score 0-4, MLP29, 0.037 nM” value [13] was 0 score. The “scatter score 0-4, MLP29, 0.111 nM” value [13] was 0 score, the “scatter score 0-4, MLP29, 0.333 nM” value [13] was 0 score and the “scatter score 0-4, MLP29, 1.000 nM” value [13] was 1 score. For the same binder, the “scatter score 0-4, MLP29, 3.000 nM” value [13] was 2 score, the “scatter score 0-4, MLP29, 9.000 nM” value [13] was 3 score and the “scatter score 0-4, HPAF-II, 0.001 nM” value [14] was 0 score. For the same binder, the “scatter score 0-4, HPAF-II, 0.004 nM” value [14] was 0 score, the “scatter score 0-4, HPAF-II, 0.012 nM” value [14] was 0 score and the “scatter score 0-4, HPAF-II, 0.037 nM” value [14] was 0 score. The “scatter score 0-4, HPAF-II, 0.111 nM” value [14] was 0 score, the “scatter score 0-4, HPAF-II, 0.333 nM” value [14] was 0 score and the “scatter score 0-4, HPAF-II, 1.000 nM” value [14] was 1 score. The “scatter score 0-4, HPAF-II, 3.000 nM” value [14] was 2 score and the “scatter score 0-4, HPAF-II, 9.000 nM” value [14] was 3 score.

B2: 71D6 Fab (Fab, V domains shown)
VH: ELQLVESGGGLVQPGGSLRLSCAASGFTFSSYGMSWVRQAPGKGLEWVSAINSYGGSTSYADSVKGRFTISRDNAKNTLYLQMNSLKPEDTAVYYCAKEVRADLSRYNDYESYDYWGQGTQVTVSS
VL: QPVLNQPSALSVTLGQTAKITCQGGSLGARYAHWYQQKPGQAPVLVIYDDDSRPSGIPERFSGSSSGGTATLTISGAQAEDEGDYYCQSADSSGSVFGGGTHLTVL
notes: llama Fab (VH-CH1 and lambda VL-CL) with MYC flag, crude periplasmic extract
B2 showed an OD450 (mouse MET ECD [15]) of 3.07 AU, an OD450 (human MET ECD [16]) of 3.26 AU and a koff (mouse MET ECD [17]) of 0.00267 s⁻¹. It also gave a koff (human MET ECD [18]) of 0.00294 s⁻¹.

Source: patent US20210087281A1 (AGOMAB THERAPEUTICS, published 2021)
